Consider one molecule from US20080206136A1 (University of Pennsylvania, published 2008).

Bridges are numbered along the chain shown (N, C = ends). Where no end group is shown, it is not given here.

This assay concerns the target T1, Her2 (UniProt P04626 23-652, limits assumed).
T1 construct: also called Her2/neu; Neu
The assay can be described thus: method not stated; affinity for Her2.

FCDGFYACYMDV (disulfide 2-8 (inferred), also called anti-Her2 peptide) [AHNP peptide] returned a dissociation constant (Kd) of 350 nM.

For orientation: Kd means the constant that tells how readily two partners part at equilibrium.
